{"source": "patent US20240270866A1", "about": "(Alector, published 2024)", "key": {"[1]": {"target": "T1, human SIRPβ1 Fc fusion antigen (human, UniProt O00241 30-371)", "T1 construct": "not shown: human IgG1 Fc", "T1 sequence (O00241 30-371 limits assumed)": "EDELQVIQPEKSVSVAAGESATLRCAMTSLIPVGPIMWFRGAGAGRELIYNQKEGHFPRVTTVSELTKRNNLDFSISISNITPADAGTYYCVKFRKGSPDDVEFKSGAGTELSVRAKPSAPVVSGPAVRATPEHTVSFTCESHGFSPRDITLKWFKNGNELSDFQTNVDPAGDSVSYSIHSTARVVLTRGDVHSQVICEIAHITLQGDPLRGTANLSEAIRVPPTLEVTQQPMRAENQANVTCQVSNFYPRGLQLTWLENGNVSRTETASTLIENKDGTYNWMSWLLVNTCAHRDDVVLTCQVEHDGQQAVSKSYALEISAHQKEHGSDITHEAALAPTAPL", "test": "ForteBio IgG avid"}, "[2]": {"target": "T2, human SIRPA Fc fusion antigen (human, UniProt P78324 31-373)", "T2 construct": "heterologous signal peptide; not shown: human IgG1 Fc", "test": "ForteBio IgG avid"}, "[3]": {"target": "human SIRPA-DAP12 chimera on BWZ NFAT-luciferase reporter cells (human, UniProt O43914 62-113, limits assumed)", "test": "cell-based or functional assay"}, "[4]": {"target": "T3, mouse SIRPA overexpressed on CHO cells (mouse, UniProt P97797 32-513)", "T3 construct": "also called CHO-muSIRPA", "T3 sequence": "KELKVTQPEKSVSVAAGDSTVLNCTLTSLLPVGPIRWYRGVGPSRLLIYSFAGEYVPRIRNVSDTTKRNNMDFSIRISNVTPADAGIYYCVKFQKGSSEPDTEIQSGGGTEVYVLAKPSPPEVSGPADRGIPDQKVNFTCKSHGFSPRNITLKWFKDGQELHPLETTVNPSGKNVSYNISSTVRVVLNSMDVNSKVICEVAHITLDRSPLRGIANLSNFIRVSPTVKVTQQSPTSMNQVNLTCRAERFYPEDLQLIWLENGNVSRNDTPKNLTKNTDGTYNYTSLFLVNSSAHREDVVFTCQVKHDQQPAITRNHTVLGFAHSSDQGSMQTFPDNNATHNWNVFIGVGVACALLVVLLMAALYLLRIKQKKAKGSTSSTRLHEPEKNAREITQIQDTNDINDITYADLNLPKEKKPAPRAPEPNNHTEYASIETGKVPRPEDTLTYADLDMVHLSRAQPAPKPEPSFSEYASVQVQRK", "test": "flow, CHO-muSIRPA;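 as to relative MFI: antibody binding measured by flow cytometry: cells stained with 1 ug/ml test antibody for 1 h on ice, detected with PE-labelled secondary antibody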"}, "[5]": {"target": "T4, human SIRPA overexpressed on CHO cells (human, UniProt P78324 31-504)", "T4 construct": "also called CHO-huSIRPA", "test": "flow, CHO-huSIRPA;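 also: Anti-SIRPA antibodies applied at 1 µg/mL for 1 h on ice, binding read by flow cytometry using a PE-labelled secondary antibody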", "protocol": "(§1) Initial characterization of anti-SIRPA antibodies of the present disclosure involved determining their ability to bind cell lines overexpressing human or mouse SIRPA. Cells were harvested, plated at 10⁶/ml in a 96 well plate, washed, and incubated in 100 ul PBS containing 1 ug/ml Mab for 1 hour in ice. Cells were then washed twice and incubated in 100 ul PBS containing 5 ug/ml PE-conjugated secondary antibody for 30 minutes in ice. Cells were washed twice in cold PBS and acquired on a BD FACS Canto. Data analysis and calculation of mean fluorescence intensity (MFI) values or % positive cells was performed with FlowJo® (TreeStar) software version 10.0.7."}, "Human SIRPA D1 Fc": {"target": "T5, Human SIRPA D1 Fc (human, UniProt P78324 32-137)", "T5 construct": "not shown: human IgG1 Fc", "test": "ForteBio IgG avid"}, "Mouse SIRPA D1 Fc": {"target": "T6, Mouse SIRPA D1 Fc (mouse, UniProt P97797 32-150, limits assumed)", "T6 sequence": "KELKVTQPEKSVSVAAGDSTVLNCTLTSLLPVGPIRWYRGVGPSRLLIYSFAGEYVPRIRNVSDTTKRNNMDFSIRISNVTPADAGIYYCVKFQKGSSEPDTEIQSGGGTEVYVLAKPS", "test": "ForteBio IgG avid", "protocol": "(§2) Briefly, ForteBio affinity measurements were performed by loading IgGs on-line onto AHQ sensors. Sensors were equilibrated off-line in assay buffer for 30 min and then monitored on-line for 60 seconds for baseline establishment. For avid binding measurement, sensors with loaded IgGs were exposed to 100 nM antigen (human SIRPA or SIRPβ1 Fc fusion) for 3 min, afterwards they were transferred to assay buffer for 3 min for off-rate measurement. Additional avid binding was determined by loading biotinylated SIRPA monomer on SA sensors and exposure to 100 nM IgG in solution. Monovalent binding measurements were obtained by loading human SIRPA or SIRPβ1 Fc fusion antigens to AHQ sensor and followed by exposure to 100 nM anti-SIRPA antibody Fab. Additional monovalent measurements were made by loading biotinylated human SIRPA or SIRPβ1 monomer to SA sensor followed by exposure to 100 nM Fab in solution. Kinetics data were fit using a 1:1 binding model in the data analysis software provided by ForteBio."}, "Human SIRPb D1 Fc": {"target": "Human SIRPb D1 Fc (human, UniProt O00241 30-148, limits assumed)", "sequence (O00241 30-148 limits assumed)": "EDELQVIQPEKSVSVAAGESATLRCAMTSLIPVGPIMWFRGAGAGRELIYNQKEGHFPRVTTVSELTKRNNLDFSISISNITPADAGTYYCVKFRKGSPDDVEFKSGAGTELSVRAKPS", "test": "ForteBio IgG avid", "protocol": "as §2"}, "[6]": {"target": "T3, mouse SIRPA overexpressed on CHO cells", "test": "flow, CHO-muSIRPA", "remark": "listed apart in the source", "protocol": "as §1"}, "[7]": {"target": "T2, human SIRPA Fc fusion antigen", "test": "ForteBio Fab monovalent", "protocol": "as §2"}, "[8]": {"target": "T1, human SIRPβ1 Fc fusion antigen", "test": "ForteBio Fab monovalent", "protocol": "(§3) Briefly, ForteBio affinity measurements were performed by loading immunoglobulins (IgGs) on-line onto AHQ sensors. Sensors were equilibrated off-line in assay buffer for 30 min and then monitored on-line for 60 seconds for baseline establishment. For avid binding measurement, sensors with loaded IgGs were exposed to 100 nM antigen (human SIRPA or SIRPβ1 Fc fusion) for 3 min, afterwards they were transferred to assay buffer for 3 min for off-rate measurement. […] Monovalent binding measurements were obtained by loading human SIRPA Fc fusion antigens to AHQ sensor and followed by exposure to 100 nM anti-SIRPA antibody Fab.\n(§4) Additional monovalent measurements were made by loading biotinylated human SIRPA monomer to SA sensor followed by exposure to 100 nM Fab in solution. Kinetics data were fit using a 1:1 binding model in the data analysis software provided by ForteBio."}, "[9]": {"target": "T2, human SIRPA Fc fusion antigen", "test": "ForteBio Fab monovalent", "remark": "listed apart in the source", "protocol": "as §3, §4"}, "[10]": {"target": "human SIRPA W68A with C-terminal V5 tag on HEK-293T cells (human, UniProt P78324 31-504)", "test": "flow cytometry, Fab on HEK-293T cells with the mutant", "protocol": "(§5) Epitope mapping of anti-SIRPA antibodies was performed using an alanine-scanning library created by shotgun mutagenesis of the human SIRPA cDNA sequence.\n(§6) Antibodies were digested to generate Fabs, after which cells were incubated with Fabs diluted in 10% normal goat serum (NGS) (Sigma-Aldrich, St. Louis, MO). Prior to library screening, primary Fab concentrations were determined using an independent immunofluorescence titration curve against cells expressing wild type SIRPA to ensure that signals were within the linear range of detection. Fabs were detected using 7.5 μg/ml AlexaFluor488-conjugated secondary antibody (Jackson ImmunoResearch Laboratories, Westgrove, PA) in 10% NGS. Cells were washed twice with PBS and resuspended in Cellstripper (Cellgro, Manassas, VA) with 0.1% BSA (Sigma-Aldrich, St. Louis, MO). In some cases, higher stringency conditions were used, including increased pH, increased temperature, and increased dissociation time. Mean cellular fluorescence was detected using the Intellicyt high throughput flow cytometer (HTFC, Intellicyt, Albuquerque, NM). Fab reactivities against each mutant clone were calculated relative to wild-type SIRPA protein reactivity by subtracting the signal from mock-transfected controls, and normalizing to the signal from wild-type SIRPA transfected controls."}, "[11]": {"target": "human SIRPA R54A with C-terminal V5 tag on HEK-293T cells (human, UniProt P78324 31-504)", "test": "flow cytometry, Fab on HEK-293T cells with the mutant", "protocol": "as §5, §6"}, "[12]": {"target": "human SIRPA D40A with C-terminal V5 tag on HEK-293T cells (human, UniProt P78324 31-504)", "test": "flow cytometry, Fab on HEK-293T cells with the mutant", "protocol": "as §5, §6"}, "[13]": {"target": "T7, biotinylated human SIRPA (monomer) (human, UniProt P78324 31-373, limits assumed, biotinylated)", "T7 construct": "monomer made by IdeS cleavage of a SIRPA Fc fusion; also called recombinant human SIRPA", "test": "MSD-SET, Fab, equilibrium;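 also: solution equilibrium titration, free antigen captured on antibody-coated MSD plates and detected by electrochemiluminescence with labeled streptavidin, percent free antigen versus titrated antibody fit to quadratic model for KD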", "protocol": "Antibodies (20 nM in PBS) were coated onto standard bind MSD-ECL plates overnight at 4° C. or at room temperature for 30 min. Plates were then blocked with 1% BSA for 30 min with shaking at 700 rpm, followed by three washes with wash buffer (PBSF+0.05% Tween 20). SET samples were applied and incubated on the plates for 150s with shaking at 700 rpm followed by one wash. Antigen captured on a plate was detected with 250 ng/ml sulfotag-labeled streptavidin in PBSF by incubation on the plate for 3 min. The plates were washed three times with wash buffer and then read on the MSD Sector Imager 2400 instrument using 1× Read Buffer T with surfactant. The percent free antigen was plotted as a function of titrated antibody in Prism and fit to a quadratic equation to extract the KD. To improve throughput, liquid handling robots were used throughout MSD-SET experiments, including SET sample preparation."}}}
{"binder": "SA-56 (antibody, V domains shown, IgG; also called SA-56 (parental)) VH: EVQLVESGGGLVKPGGSLRLSCAASGFTFSSYSMNWVRQAPGKGLEWVSSISSSSSYIYYADSVKGRFTISRDNAKNSLYLQMNSLRAEDTAVYYCARGVETYSGPNWFDPWGQGTLVTVSS VL: DIQMTQSPSSVSASVGDRVTITCRASQGISSWLAWYQQKPGKAPKLLIYAASSLQSGVPSRFSGSGSGTDFTLTISSLQPEDFATYYCQQAIYFPITFGGGTKVEIK", "values": [{"measurement": "binding result", "setting": "[1]", "value": "no binding (tested: 100 nM)"}, {"measurement": "Kd", "setting": "[2]", "value": 2.04, "unit": "nM"}, {"measurement": "luminescence of BWZ-huSIRPA reporter cells with SA-56 and plate-bound CD47", "setting": "[3]", "value": "~10", "unit": "fold over background"}, {"measurement": "binding result", "setting": "[4]", "value": "no binding (tested: 1 ug/ml)"}, {"measurement": "relative MFI", "setting": "[5]", "value": 128, "unit": "fold over background"}, {"measurement": "Kd", "setting": "Human SIRPA D1 Fc", "value": 2.81, "unit": "nM"}, {"measurement": "binding result", "setting": "Mouse SIRPA D1 Fc", "value": "no binding (tested: 100 nM)"}, {"measurement": "binding result", "setting": "Human SIRPb D1 Fc", "value": "no binding (tested: 100 nM)"}, {"measurement": "relative MFI", "setting": "[6]", "value": 0.583, "unit": "fold over background"}]}
{"binder": "SA-56 Fab (Fab, V domains shown, papain Fab; also called SA-56 (parental)) VH: EVQLVESGGGLVKPGGSLRLSCAASGFTFSSYSMNWVRQAPGKGLEWVSSISSSSSYIYYADSVKGRFTISRDNAKNSLYLQMNSLRAEDTAVYYCARGVETYSGPNWFDPWGQGTLVTVSS VL: DIQMTQSPSSVSASVGDRVTITCRASQGISSWLAWYQQKPGKAPKLLIYAASSLQSGVPSRFSGSGSGTDFTLTISSLQPEDFATYYCQQAIYFPITFGGGTKVEIK", "values": [{"measurement": "Kd", "setting": "[7]", "value": 301, "unit": "nM"}, {"measurement": "binding result", "setting": "[8]", "value": "no binding (tested: 100 nM)"}, {"measurement": "Kd", "setting": "[9]", "value": 206, "unit": "nM"}]}
{"binder": "SA-56-94 Fab (Fab, V domains shown, papain Fab; also called SA-94) VH: EVQLVESGGGVVQPGRSLRLSCAASGFTFSYYGMSWVRQAPGKGLEWVASIWVDGSNKYYADSVKGRFTISRDNSKNTLYLQMNSLRAEDTAVYYCAVGTETYSGPNWFDPWGQGTLVTVSS VL: DIQMTQSPSSVSASVGDRVTITCRASQGISSWLAWYQQKPGKAPKLLIYAASSLQSGVPSRFSGSGSGTDFTLTISSLQPEDFATYYCQQAIYFPITFGGGTKVEIK", "values": [{"measurement": "Binding Reactivity (% WT), mean", "setting": "[10]", "value": 25.6, "unit": "% WT"}, {"measurement": "Binding Reactivity (% WT), mean", "setting": "[11]", "value": 2.9, "unit": "% WT"}, {"measurement": "Binding Reactivity (% WT), mean", "setting": "[12]", "value": 0.2, "unit": "% WT"}, {"measurement": "Kd", "setting": "[13]", "value": 0.88, "unit": "nM"}, {"measurement": "binding result", "setting": "[8]", "value": "no binding (tested: 100 nM)"}, {"measurement": "Kd", "setting": "[9]", "value": 3.43, "unit": "nM"}]}
{"binder": "SA-56-90 Fab (Fab, V domains shown, papain Fab; also called SA-90) VH: QVQLVESGGGVVQPGRSLRLSCAASGSTFSHYGMSWVRQAPGKGLEWVASIWVDGSNKYYADSVKGRFTISRDNSKNTLYLQMDSLRAEDTAVYYCARGVETYSGPNWFDPWGQGTLVTVSS VL: DIQMTQSPSSVSASVGDRVTITCRASQGISSWLAWYQQKPGKAPKLLIYAASSLQSGVPSRFSGSGSGTDFTLTISSLQPEDFATYYCQQAIYFPITFGGGTKVEIK", "values": [{"measurement": "Binding Reactivity (% WT), mean", "setting": "[10]", "value": 19.3, "unit": "% WT"}, {"measurement": "Binding Reactivity (% WT), mean", "setting": "[11]", "value": 1.7, "unit": "% WT"}, {"measurement": "Binding Reactivity (% WT), mean", "setting": "[12]", "value": 0.4, "unit": "% WT"}, {"measurement": "Kd", "setting": "[13]", "value": 0.17, "unit": "nM"}, {"measurement": "binding result", "setting": "[8]", "value": "no binding (tested: 100 nM)"}, {"measurement": "Kd", "setting": "[9]", "value": 1.11, "unit": "nM"}]}
{"binder": "SA-36 Fab (Fab, V domains shown, papain Fab) VH: not shown VL: EIVLTQSPATLSLSPGERATITCQASQDISSYLAWYQQKPGQAPRLLIYDASNRATGIPARFSGSGSGTDFTLTISSLEPEDFAVYYCQQRTHYPWTFGGGTKVEIK", "values": [{"measurement": "Kd", "setting": "[7]", "value": 2070, "unit": "nM"}]}
{"binder": "SA-38 Fab (Fab, V domains shown, papain Fab) VH: QVQLQESGPGLVKPSQTLSLTCTVSGGSISSGGYYWSWIRQHPGKGLEWIGSIYYSGSTYYNPSLKSRVTISVDTSKNQFSLKLSSVTAADTAVYYCAREGAYSLYVNWFDPWGQGTLVTVSS VL: EIVMTQSPATLSVSPGERATLSCRASQSVSSSLAWYQQKPGQAPRLLIFGASTRATGIPARFSGSGSGTEFTLTISSLQSEDFAVYYCQQYDNYPPITFGGGTKVEIK", "values": [{"measurement": "Kd", "setting": "[7]", "value": 281, "unit": "nM"}]}
{"binder": "SA-39 Fab (Fab, V domains shown, papain Fab) VH: QVQLVQSGAEVKKPGASVKVSCKASGYTFTSYYMVWVRQAPGQGLEWMGIINPSGGSTSYAQKFQGRVTMTRDTSTSTVYMELSSLRSEDTAVYYCAREGGYGYRAYPYGMDVWGQGTTVTVSS VL: DIQMTQSPSSLSASVGDRVTITCQASQDISNSLNWYQQKPGKAPKLLIYDASNLETGVPSRFSGSRSGTDFTFTISSLQPEDIATYYCQQVIILPLTFGGGTKVEIK", "values": [{"measurement": "Kd", "setting": "[7]", "value": 100, "unit": "nM"}]}
